Positions count from the first letter of the chain named.
B1: 75110_01L08A (antibody, V domains shown)
VH: QVQLQESGPGLVKPSETLSLTCTVSGGSISHYYWSWIRQPPGKGLEWIGYIHYSGTTNYNPSLKSRVTISVDTSKNQLSLKLRSVTAADTAVYYCARDQGFSSGGMDVWGQGTTVTVSS
VL: not shown
notes: Tested as antibody purified from AlivaMab Mouse hybridoma supernatant (captured by anti-mouse IgG Fc)
B2: 75110_14I16A (antibody, V domains shown)
VH: QVQLQESGPGLVKPSETLSLTCTVSNGSISSYYWSWIRQSAGKGLEWIGRIYTSGSTNYNPSLKSRVTMLVDTSKNQFSLKLSSVTAADTAVYYCARDREDYYYYGMDVWGQGTTVTVSS
VL: DIQMTQSPSSLSASVGDRVTITCQASHDISNYLNWYQQKPGKAPKLLLYYASNLETGVPSRFSGSGSGTDFTFTITSLQPEDIGTYSCQQYDNLPLTFGGGTKVEIK
notes: Tested as antibody purified from AlivaMab Mouse hybridoma supernatant (human variable domains, kappa; mouse Fc, captured on anti-mouse IgG Fc sensors); also called ADS75110 purified AMM Ab
B3: 75110_08A13A (antibody, V domains shown)
VH: EVQLVESGGGLVQPGGSLRLSCAASGFIFSSYWMSWVRQAPGKGLEWVANIKQDGSEKYYMDSVKGRFTISRDNAKNSLYLQMNSLRAEDTAVYYCARDNSYYYYGMDVWGQGTTVTVSS
VL: AIQMTQSPSSLSASVGDRVTITCRASQGIRDDLGWYQQKPGKAPKLLIFAASSLQSGVPSSFSGSGSGTDFTLTISSLQPEDFATYYCLHHYNYPYTFGQGTKLEIK
notes: as for B2
B4: 75110_10K21A (antibody, V domains shown)
VH: EVQLVESGGGLVQPGGSLRLSCAASGFTFSSYWMTWVRQAPGKGLEWVANIKQDGSEKYYVDSVKGRFTISRDNAKNSLYLQMNSLRAEDTAVYYCVRDRYDALDIWGQGTMVTVSS
VL: B3 VL with D31N, G34N, F49Y, S61R, P80A, H90K, H91D
notes: as for B2
B5: 75110_08F20A (antibody, V domains shown)
VH: QVQLQESGPGLVKPSETLSLTCSVSGGSISTYYWSWIRQPAGKGLEWIGRICTTENTNYNPSLKSRVTMSIDSSKNQFSLKLSSVTAADTAVYYCARDLERLNYYGMDVWGQGATVTVSS
VL: DIQMTQSPSSLSASVGDRVTITCQASQDISKYLNWYQQKPGIAPKLLIYDASNLETGVPSRFSGSGSGTDFTFTISSLQPEDFATYYCQQYDSLPITFGQGTRLEIK
notes: as for B2
B6: 75110_14N19A (antibody, V domains shown)
VH: B5 VH with S23T, T31R, T54S, T57P, S62A, I71V, S73T, D98E, A114T
VL: B5 VL with S7F, K31N, I42K, T56S, S65R, Y86F, S93T
notes: as for B2
B7: 75110_08G08A (antibody, V domains shown)
VH: B5 VH
VL: B5 VL with K31N, F83I
notes: as for B2
B8: 75110_04F22A (antibody, V domains shown)
VH: EVQLVESGGGLVQPGGSLRLSCAASGFTFSSYDIHWVRQATGKGLEWVSTIGTAGDTYYPGSVKGRFTISRENAKNSLYLQMNSLRAGDTAVYYCARGGYYYYGMDVWGQGTTVTVSS
VL: EIVLTQSPGTLSLSPGERATLSCRASQSVYSSYLAWYQQKPGQAPRLLIYGASSRATGIPDRFSGSGSGTDFTLTISRLEPEDFAVYYCQQFGTSPFTFGPGTKVDIK
notes: as for B1
B9: 75110_01G11A (antibody, V domains shown)
VH: B8 VH with I34M, K75R, Y79F, Y100D
VL: B8 VL with S14F, S28N, V29T, S54N, F92H
notes: as for B1
B10: 75110_01N04A (antibody, V domains shown)
VH: B8 VH with S31N, I34M, Y100D, Y101F, M105L
VL: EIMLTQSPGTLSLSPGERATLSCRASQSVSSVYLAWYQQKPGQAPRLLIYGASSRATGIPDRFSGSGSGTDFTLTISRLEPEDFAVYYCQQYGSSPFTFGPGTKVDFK
notes: as for B1
B11: 75110_01J17A (antibody, V domains shown)
VH: B8 VH with I34M, A40G, G55D, K75E, Y100D
VL: B8 VL with T5A, S31I, S77T, T94S, I107F
notes: as for B1
B12: 75110_01E08A (antibody, V domains shown)
VH: B8 VH with S30N, S31N, I34M, G61A, S70Y, Y100D
VL: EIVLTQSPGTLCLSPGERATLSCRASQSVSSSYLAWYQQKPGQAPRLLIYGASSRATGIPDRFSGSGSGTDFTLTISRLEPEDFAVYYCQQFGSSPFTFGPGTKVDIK
notes: as for B1
B13: 75110_07N04A (antibody, V domains shown)
VH: QVQLQESGPGLVKPSETLSLTCSVSGVSSTSFYWSWIRQPAGKGLDWIGRIYTSGSTNYNPSLKSRVTMSVDTSKNQFSLKLSSVTAADTAVYYCARDPGYSDAFAIWGQGTMVTVSS
VL: not shown
notes: as for B2
B14: 75110_01A06A (antibody, V domains shown)
VH: EVQLVESGGGLVQPGGSLRLSCAASGFTFSSYWMSWVRQAPGKGLEWVANINEDGNEKYYVDSVKGRLTISRDNAKNSLYLQMNSLRAEDTAVYFCAREGGQWLSLDYWGQGALVTVSS
VL: DIQMTQSPSSVSASVGDRVSITCRASQGISSWLAWYQQKPGKAPKILIYGASSLQSGVPSRFSGSGSGTDFTLTISSLQPEDFATYYCQQANSFPWTFGQGTKVEIK
notes: as for B1
B15: 75110_01H18A (antibody, V domains shown)
VH: QVQLQQWGAGLLKPSETLSLTCAVYGGSFSGYYWSWIRQSPGKGLEWIGEINQSGSTNYNPSLKSRVTISVDTSKNQFSLKLSSVTAADTAVYYCARVINWFDSWGQGTLVTVSS
VL: B14 VL with S20T, I46L, G50A, L54F, P80T, W96Y, K103R, V104L
notes: as for B1
B16: 75110_01J09A (antibody, V domains shown)
VH: B14 VH with A23V, I51T, N52K, N56S, E57D, L68F, S71C, F95Y, S105A, A113T
VL: B14 VL with S20T, T22N, K45N, I46L, Y49F, S67F, T72S, S76T, S77T, Y87H
notes: as for B1
B17: 75110_03D16A (antibody, V domains shown)
VH: B14 VH with E53Q, N56G, L68F, F95Y, A97V, S105A, A113T
VL: B14 VL with S20T, A34T, I46F, G50A, S67F
notes: as for B1
B18: 75110_04K10A (antibody, V domains shown)
VH: B14 VH with E53Q, N56S, L68F, M83L, V93M, F95Y, A113T
VL: B14 VL with S20T, I46V, A51V, L54F, T72I
notes: as for B1
B19: 75110_02N15A (antibody, V domains shown)
VH: B14 VH with L68F, Y80F, S105A, Y108H
VL: B14 VL with S20T, I46F, Y49S, I106F
notes: as for B1
B20: 75110_03C01A (antibody, V domains shown)
VH: B15 VH with N76D, T109S
VL: B14 VL with S20T, K42N, I46L, G50D, L54F, P80T, W96Y, V104L
notes: as for B1
B21: 75110_01D24A (antibody, V domains shown)
VH: B15 VH with S40P, Q53H, K75E, S83N, V98L, I99V, S104P
VL: EIQMTQSPSSVSASVGDRVTITCRASQDISNWLAWYQQKPGKAPNLLIFAASSLQTGVPSRFSGSGSGTDFTLTISSLQPDDFATYYCQQANSFPYSFGQGTNLGIK
notes: as for B1
B22: 75110_13P21A (antibody, V domains shown)
VH: B15 VH with Y25S, S40P, Q53H, Y59C, K75N, I99L, W101Y, S104Y
VL: DIQMTQSPSSVSASVGDRVTITCRASPDIANWLAWYQQKPGKAPELLIYAASSLQSGVPSRFSGSGSGTDFTLTISSLQPEDFATYFCQQANSFPLTFGGGTKVESK
notes: as for B2
B23: 75110_12K21A (antibody, V domains shown)
VH: B15 VH with Y25S, S40P, Q53H, Y59C, K75N, I99L, W101Y, S104Y
VL: B22 VL
notes: as for B2
B24: 75110_03L12A (antibody, V domains shown)
VH: B15 VH with S40P, Q53H, K75E, K81T, S83I, A96V, V98L, S104P
VL: B21 VL with E1D, N45K, T56S, S97T
notes: as for B1
B25: 75110_13C13A (antibody, V domains shown)
VH: B15 VH with Y25S, S40P, Q53H, Y59C, V92M, I99L, W101F, S104Y
VL: B22 VL with S7T, D28G, A30S
notes: as for B2

Assays:
[1] = biological target: T1, Rhesus macaque CD4-HIS (Acro Biosystems, Cat. CD4-C52H7) (rhesus macaque, UniProt P16003 26-390); experiment: BLI Octet, mAb on anti-mouse Fc sensor, rhesus CD4-HIS 25-100 nM, 1:1 global fit;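 also: purified antibodies captured at 10 µg/mL, rhesus CD4 analyte run as a three-concentration serial dilution, irrelevant antibody as reference control, one kinetic constant set per antibody from global fitting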
T1 construct: Bought reagent; also called Rhesus CD4; rhesus CD4-HIS; not shown: His tag

[2] = biological target: T2, Rhesus macaque CD4-HIS (Acro Biosystems, Cat. CD4-C52H7) (rhesus macaque, UniProt P16003 26-390); experiment: BLI (Octet Red384); Ab on anti-mouse Fc (AMC) sensor; rhesus CD4-HIS 100/50/25 nM; global 1:1 fit;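 also: antibodies loaded at 10 µg/mL, an unrelated mouse-derived antibody served as internal reference, curves fit over association and dissociation phases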
T2 construct: Bought reagent; also called Rhesus CD4; rhesus CD4-HIS; not shown: His tag

Binder	Kd [1]	Response [1]	koff [1]	kon [1]	Kd [2]	Response [2]	koff [2]	kon [2]
B1	8.1 nM	0.06	0.0011 s⁻¹	140000 M⁻¹ s⁻¹	–	–	–	–
B2	–	–	–	–	14 nM	0.13	0.0027 s⁻¹	190000 M⁻¹ s⁻¹
B3	–	–	–	–	5.1 nM	0.15	0.00098 s⁻¹	190000 M⁻¹ s⁻¹
B4	–	–	–	–	2.1 nM	0.23	0.00033 s⁻¹	160000 M⁻¹ s⁻¹
B5	–	–	–	–	11 nM	0.22	0.0026 s⁻¹	230000 M⁻¹ s⁻¹
B6	–	–	–	–	14 nM	0.17	0.0021 s⁻¹	150000 M⁻¹ s⁻¹
B7	–	–	–	–	19 nM	0.15	0.0041 s⁻¹	220000 M⁻¹ s⁻¹
B8	7.2 nM	0.04	0.0011 s⁻¹	150000 M⁻¹ s⁻¹	–	–	–	–
B9	64 nM	0.03	0.0018 s⁻¹	28000 M⁻¹ s⁻¹	–	–	–	–
B10	0.035 nM	0.02	0.0061 s⁻¹	1.7e+08 M⁻¹ s⁻¹	–	–	–	–
B11	22 nM	0.05	0.0017 s⁻¹	79000 M⁻¹ s⁻¹	–	–	–	–
B12	0.98 nM	0.1	0.00014 s⁻¹	140000 M⁻¹ s⁻¹	–	–	–	–
B13	–	–	–	–	< 0.001 nM	0.03	< 1e-07 s⁻¹	13000 M⁻¹ s⁻¹
B14	7.8 nM	0.39	0.001 s⁻¹	130000 M⁻¹ s⁻¹	–	–	–	–
B15	130 nM	0.11	0.017 s⁻¹	130000 M⁻¹ s⁻¹	–	–	–	–
B16	70 nM	0.17	0.0032 s⁻¹	46000 M⁻¹ s⁻¹	–	–	–	–
B17	12 nM	0.1	0.002 s⁻¹	160000 M⁻¹ s⁻¹	–	–	–	–
B18	48 nM	0.17	0.0032 s⁻¹	67000 M⁻¹ s⁻¹	–	–	–	–
B19	14 nM	0.29	0.0026 s⁻¹	190000 M⁻¹ s⁻¹	–	–	–	–
B20	9.8 nM	0.18	0.0027 s⁻¹	280000 M⁻¹ s⁻¹	–	–	–	–
B21	340 nM	0.08	0.064 s⁻¹	190000 M⁻¹ s⁻¹	–	–	–	–
B22	–	–	–	–	75 nM	0.11	0.013 s⁻¹	170000 M⁻¹ s⁻¹
B23	–	–	–	–	21 nM	0.16	0.0056 s⁻¹	270000 M⁻¹ s⁻¹
B24	72 nM	0.08	0.016 s⁻¹	220000 M⁻¹ s⁻¹	–	–	–	–
B25	–	–	–	–	8.3 nM	0.09	0.0046 s⁻¹	550000 M⁻¹ s⁻¹

Reference: patent publication US20220112288A1 (published 2022)
